Source: the Human Domainome abundance scans (Beltran et al. 2025)
± gives the uncertainty stated by the source.

B1: Peroxisome proliferator-activated receptor delta, residues 71 to 145; numbered along this chain, Q03181 (parent)
chain: NMECRVCGDKASGFHYGVHACEGCKGFFRRTIRMKLEYEKCERSCKIQKKNRNKCQYCRFQKCLALGMSHNAIRF

Variants of: B1
Assay: abundance fitness (aPCA) (normalised: wild type 0, dead -1); higher = more abundant; growth selection in yeast, the domain comes from the species named
Conditions: Homo sapiens

In order of rising abundance fitness:
1. V6T  -1.18 ± 0.19
2. T31P  -1.16 ± 0.2
3. C45D  -1.01 ± 0.25
4. C24E  -0.924 ± 0.18
5. V6P  -0.923 ± 0.12
6. C4G  -0.911 ± 0.12
7. G8P  -0.891 ± 0.11
8. C45Q  -0.884 ± 0.2
9. K25P  -0.878 ± 0.13
10. C21S  -0.867 ± 0.094
11. C21E  -0.847 ± 0.15
12. V6G  -0.841 ± 0.079
13. L64F  -0.828 ± 0.23
14. K62P  -0.824 ± 0.12
15. F28R  -0.823 ± 0.091
16. V6D  -0.823 ± 0.19
17. M68G  -0.822 ± 0.081
18. A65P  -0.819 ± 0.14
19. C41Y  -0.816 ± 0.34
20. F27L  -0.784 ± 0.098
21. G8F  -0.779 ± 0.23
22. C58R  -0.771 ± 0.069
23. C58L  -0.769 ± 0.086
24. Y57L  -0.765 ± 0.12
25. L64W  -0.755 ± 0.1
26. G67I  -0.74 ± 0.22
27. C4N  -0.738 ± 0.2
28. C41E  -0.729 ± 0.19
29. A11W  -0.706 ± 0.092
30. F27R  -0.684 ± 0.065
31. I32G  -0.677 ± 0.078
32. C55Y  -0.676 ± 0.32
33. Y57V  -0.675 ± 0.087
34. C4F  -0.675 ± 0.2
35. V18R  -0.671 ± 0.067
36. C7E  -0.656 ± 0.099
37. K35I  -0.655 ± 0.19
38. L64S  -0.648 ± 0.089
39. K62W  -0.646 ± 0.092
40. Q61G  -0.639 ± 0.055
41. C21G  -0.633 ± 0.067
42. C24A  -0.626 ± 0.13
43. V6A  -0.619 ± 0.07
44. C21K  -0.597 ± 0.12
45. T31W  -0.588 ± 0.089
46. G67R  -0.584 ± 0.052
47. C7S  -0.575 ± 0.067
48. C4E  -0.571 ± 0.12
49. Y38L  -0.544 ± 0.077
50. Y16R  -0.533 ± 0.057
51. C7G  -0.504 ± 0.06
52. N53P  -0.468 ± 0.087
53. L36D  -0.461 ± 0.14
54. K35Y  -0.456 ± 0.12
55. E39Y  -0.447 ± 0.1
56. K62Y  -0.441 ± 0.13
57. G8Y  -0.438 ± 0.15
58. L66H  -0.436 ± 0.13
59. C58Y  -0.432 ± 0.16
60. G13R  -0.427 ± 0.045
61. K62F  -0.418 ± 0.13
62. N71L  -0.412 ± 0.054
63. I47N  -0.4 ± 0.098
64. N51R  -0.395 ± 0.055
65. L64R  -0.391 ± 0.041
66. E22H  -0.385 ± 0.099
67. R5P  -0.376 ± 0.055
68. N51Y  -0.363 ± 0.15
69. Q61N  -0.359 ± 0.095
70. D9R  -0.348 ± 0.045
71. K40W  -0.348 ± 0.058
72. E22G  -0.341 ± 0.05
73. N71Y  -0.337 ± 0.089
74. K35V  -0.33 ± 0.059
75. E3R  -0.327 ± 0.041
76. G8E  -0.32 ± 0.061
77. A11Y  -0.31 ± 0.083
78. E42I  -0.304 ± 0.089
79. A72I  -0.297 ± 0.1
80. K50Y  -0.295 ± 0.13
81. I47S  -0.287 ± 0.038
82. D9F  -0.283 ± 0.082
83. A72F  -0.27 ± 0.1
84. V18L  -0.258 ± 0.044
85. E42P  -0.25 ± 0.056
86. N53Y  -0.249 ± 0.098
87. Q61S  -0.248 ± 0.056
88. H15P  -0.242 ± 0.055
89. I47E  -0.235 ± 0.035
90. L36S  -0.235 ± 0.052
91. I32C  -0.234 ± 0.091
92. E39R  -0.224 ± 0.032
93. E39G  -0.221 ± 0.033
94. M2N  -0.21 ± 0.09
95. E42L  -0.195 ± 0.04
96. R30V  -0.188 ± 0.049
97. E3V  -0.178 ± 0.045
98. R30M  -0.176 ± 0.072
99. E22I  -0.176 ± 0.087
100. A20S  -0.168 ± 0.05
101. L36K  -0.165 ± 0.075
102. N1H  -0.155 ± 0.11
103. G17D  -0.15 ± 0.058
104. C24H  -0.15 ± 0.16
105. A11T  -0.147 ± 0.052
106. I47M  -0.132 ± 0.044
107. L36C  -0.13 ± 0.064
108. N53W  -0.127 ± 0.048
109. S12E  -0.123 ± 0.052
110. Q56Y  -0.116 ± 0.076
111. M2Y  -0.113 ± 0.1
112. N53K  -0.104 ± 0.069
113. K40R  -0.095 ± 0.033
114. E39S  -0.094 ± 0.037
115. E42Y  -0.093 ± 0.089
116. N53A  -0.086 ± 0.041
117. A65T  -0.073 ± 0.051
118. Q56M  -0.066 ± 0.062
119. Y16A  -0.065 ± 0.042
120. D9A  -0.065 ± 0.043
121. E3Q  -0.059 ± 0.048
122. K49F  -0.045 ± 0.22
123. R43S  -0.045 ± 0.043
124. R43M  -0.043 ± 0.052
125. N51Q  -0.042 ± 0.063
126. S44L  -0.038 ± 0.037
127. K54V  -0.037 ± 0.035
128. K46R  -0.037 ± 0.029
129. K54W  -0.036 ± 0.047
130. K54I  -0.031 ± 0.072
131. R52Q  -0.03 ± 0.052
132. H15D  -0.027 ± 0.05
133. L66N  -0.014 ± 0.073
134. S69T  -0.013 ± 0.052
135. K54Q  -0.012 ± 0.048
136. N1T  -0.012 ± 0.067
137. G13N  -0.01 ± 0.069
138. K25R  -0.003 ± 0.033
139. A65Q  -0.001 ± 0.052
140. H19W  -0.001 ± 0.044
141. K49A  0 ± 0.15
142. R74I  0.001 ± 0.11
143. K54A  0.009 ± 0.04
144. F14V  0.018 ± 0.037
145. H70K  0.019 ± 0.1
146. R5D  0.032 ± 0.05
147. R5S  0.034 ± 0.038
148. I73C  0.047 ± 0.057
149. K46T  0.05 ± 0.046
150. K50F  0.07 ± 0.17
151. I73Q  0.078 ± 0.053
152. R43F  0.082 ± 0.1
153. N51D  0.086 ± 0.053
154. R5V  0.091 ± 0.035
155. N71D  0.103 ± 0.064
156. R5E  0.105 ± 0.045
157. R59Y  0.107 ± 0.066
158. R33C  0.11 ± 0.062
159. F75L  0.128 ± 0.05
160. K50I  0.132 ± 0.095
161. K25E  0.142 ± 0.04
162. F75A  0.15 ± 0.08
163. R29Q  0.168 ± 0.045
164. R5A  0.175 ± 0.034
165. R29A  0.191 ± 0.033
166. G23D  0.192 ± 0.054
167. R74E  0.259 ± 0.052
